Experimental data published in patent US12673985B2, “Method for the treatment or prophylaxis of cancer by targeting the extracellular portion of keratin 14 (KRT14) residing on cancer cells” (Hudson Institute of Medical Research, priority 2019, dated 2026).
Entries after “also recorded” stand apart in the source; their conditions may differ.

Columns and labels:
KRT14 = biological target: T1, KRT14 (Homo sapiens, UniProt P02533); assay: Immunohistochemical staining of FFPE tumour tissue sections; settings: 2 μg/ml-0.25 μg/ml, overnight incubation
T1 sequence (P02533 1-472): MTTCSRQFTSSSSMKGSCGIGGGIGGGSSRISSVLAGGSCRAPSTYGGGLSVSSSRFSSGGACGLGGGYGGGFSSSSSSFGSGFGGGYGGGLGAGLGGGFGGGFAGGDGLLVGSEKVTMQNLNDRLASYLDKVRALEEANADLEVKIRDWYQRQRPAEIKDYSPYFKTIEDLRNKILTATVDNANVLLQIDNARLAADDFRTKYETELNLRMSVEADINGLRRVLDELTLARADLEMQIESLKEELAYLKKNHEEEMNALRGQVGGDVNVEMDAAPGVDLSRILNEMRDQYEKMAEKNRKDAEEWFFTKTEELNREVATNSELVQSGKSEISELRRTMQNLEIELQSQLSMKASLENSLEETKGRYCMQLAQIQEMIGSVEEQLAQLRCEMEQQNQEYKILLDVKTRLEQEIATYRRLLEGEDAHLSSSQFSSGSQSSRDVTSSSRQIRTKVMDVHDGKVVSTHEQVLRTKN
Experimental: Human Tissue Arrays and Immunohistochemistry. Immunohistochemistry was performed on tissue micrarray (TMA) sections purchased from USBIOMAX (#ov2085, #ov20811) or generated in house (tumour and fallopian tube) as previously described [Bilandzic et al. (2014) Cancer Lett 354(1):107-114; Rainczuk et al. (2013) J Proteome Res; Salamonsen et al. (2013) Fertil Steril 99(4):1086-92](Supplementary Data 6 and 7). For antigen retrieval, sections were incubated for 10 minutes in 50 mM glycine (pH 3.5) at 90° C. Sections were incubated overnight at 4° C. with Rb-KRT14 antibody (1:100, Sigma, SAB4501657) and mAb AN-17 (1:500) in 0.1% w/v BSA/PBS. Subsequent steps were performed at room temperature, with PBS washes between incubations. […] Antibody binding was detected as a brown precipitate after development with 3,3′-diaminobenzidine tetrahydrochloride, and Harris hematoxylin was used as counterstain. […] Positive immunostaining was assessed relative to parallel sections exposed to an isotype (IgG) control. Immunostaining in tumor and stromal tissue was assessed using Aperio ImageScope (v 12.3.3) as described (Rainczuk et al. (2013) supra). […]

[1] = system: Murine ID8 ovarian tumour; assay: Treatment of established primary ID8 ovarian tumours in syngeneic mouse model; format: in vivo, C57BL/6 mice; settings: 5 mg/kg i.p. bi-weekly for 3 weeks
Experimental: Mice with primary tumours (n=10/group) received mAb AN-17 at 5 mg/kg by intraperitoneal injection bi-weekly, for a period of 3 weeks. Control animals received an equivalent dose of isotype-matched control IgG kappa antibody (Control Group 1); or and equivalent volume of vehicle (PBS) alone (Control Group 2). Following 3 weeks of bi-weekly treatment (Mondays and Thursdays), all mice were culled and assessed for tumour size and weight. Two additional, non-tumour bearing animals were used as non-surgical controls.

KRT14+ CTCs = assay: Flow cytometry detection of circulating tumour cells in blood of mice bearing ID8 iRFP720+ epithelial ovarian tumours; format: cell-based; settings: confirmed by iRFP720+ status
Experimental: (§1) Flow cytometry was carried out according to standard protocols (PMID: 30602661), with data acquired using a BD LSRFortessa X-20 (BD Biosciences) and analysed using FlowJo software v10.5.0 (BD Biosciences). Samples assessed for KRT14+ cell populations included OVCAR3, CAOV4, ID8 mouse ovarian cancer cells, ascites-derived ovarian cancer cells derived from a clinical specimen (designated #3.1937-07) and cardiac blood from a mice bearing 12-week old epithelial ovarian tumours. For cell lines, 1×10^6 cells per cell line were incubated with either mAb AN-17 (1:200 dilution) or a commercially available anti-KRT14 polyclonal antibody (Sigma SAB4501657; 1:50 dilution) as a positive control for 45 mins in non-immune serum at room temperature. The secondary antibodies, goat anti-mouse Alexa647 (mAb AN-17) or goat anti-rabbit IgG Alexa 488 (commercial Ab), were diluted 1:500 and incubated for 30 minutes. For blood samples, 2×10^6 cells were incubated with an Alexa Fluor®488-conjugated mAb AN-17 antibody for 45 minutes. Following PBS washes, cells were resuspended in PBS/2% FBS data was acquired using a BD LSRFortessa X-20 (BD Biosciences) flow cytometer.
Expression of extracellular KRT14 also marks the circulating tumour cell (CTC) population.

KRT14+ cells = assay: Flow cytometry for KRT14+ cell populations in ovarian cancer cells; format: cell-based, human and murine; settings: mAb AN-17 1:200
Experimental: as §1

[2] = system: OVCAR4 ovarian cancer cells; assay: Real time cell analysis (RTCA) of proliferation with cisplatin and mAb AN-17; format: cell-based, human
Experimental: Real time cell analysis (RTCA) was conducted as previously described (PMID: 31443478; Bilandzic et al., Cancers (Basel). 2019; 11(9), E1228) using an xCELLigence RTCA SP 96-well instrument (ACEA Biosciences). Cell lines were synchronized in G0 by overnight incubation in serum-free media and were seeded at 0.5×10^3 cells/0.15 ml/per well. […] Impedance readings were taken every 15 minutes for the experimental duration. mAb AN-17 comprises the heavy chain variable region of SEQ ID NO:3 and the light chain variable region of SEQ ID NO:5, encoded by the nucleic acid sequences of SEQ ID NOs:2 and 4, respectively (see also FIGS. 21 and 22A-22B).

B1: mAb AN-17: monoclonal anti-KRT14 antibody; heavy chain variable region SEQ ID NO:3, light chain variable region SEQ ID NO:5 (clone AN-17A RG4.E5b.A7.B4) (antibody, listed as Mus musculus, V domains shown)
VH: QVQLKESGPGLVAPSQSLSITCTVSGFSLSRYSVHWVRQPPGKGLEWLGMIWGGGSTDYNSALKSRLSISKDNSKSQVFLKMNSLQTDDTAMYYCARKDYGYSYFDYWGQGTTLTVSS
VL: DVLMTQTPLSLPVSLGDQASISCRSSQSIVHSNGNTYLEWYLQKPGQSPKLLIYKVSNRFSGVPDRFSGSGSGTDFTLKISRVEAEDLGVYYCFQGSHVPFTFGSGTKLEIKRADAAPTVS
For B1, which “staining localization in tumour tissue” value (KRT14) is on record?
The value was “Staining was restricted to tumour epithelium”.

What about the “staining localization in tumour tissue” value (KRT14; listed as mAb A-17) of the same molecule?
Its value is “staining observed specifically in the tumour epithelium”.

And the “adverse effects during treatment” value [1]?
Its value is “had no observable adverse effects on animals; also recorded: no adverse effects noted during the treatment period”.

And the “primary ovarian tumours at cull / tumour progression” value ([1]; n=10/group)?
The value was “no tumours could be identified; also recorded: complete regression”.

What about the “identification of circulating tumour cells from whole blood” value (KRT14+ CTCs) of the same molecule?
The value was “able to detect and isolate KRT14+ CTCs”.

And the “identification of circulating tumour cells from whole blood” value (KRT14+ CTCs; listed as mAB AN-17)?
The value was “able to correctly identify iRFP+ cells from whole blood”.

And the “detection of KRT14+ cells by flow cytometry compared to Sigma SAB4501657” value (KRT14+ cells)?
The value was “comparable sensitivity”.

And the “enhancement of the toxicity of cisplatin” value ([2]; cisplatin at sub-lethal doses)?
Its value is “significantly enhanced the toxicity of cisplatin”.

And the “increase in sensitivity of cells to standard platinum chemotherapy” value ([2]; in vitro)?
The value was “at least 10 fold”.

And the “cell viability or proliferation” value ([2]; mAb AN-17 alone (1 ug/ml))?
The value was “had no effect on cell viability or proliferation”.
